Measurements published in patent publication US20210347895A1 (IMMUNOME, published 2021).

Experiments:
[1] = biological target: T1, BSA (UniProt P02769 25-607); experiment: flow cytometry; BSA-coated latex beads, two-colour dot plot of IMM20059 against anti-CD63
T1 construct: also called BSA-coated beads

[2] = biological target: T2, recombinant PD-L1 (UniProt Q9NZQ7 19-238); experiment: dot blot; recombinant PD-L1 spotted at 4, 10 and 40 ng, probed with the antibody
T2 construct: also called Programmed Death Ligand-1
T2 sequence (Q9NZQ7 19-238 limits assumed): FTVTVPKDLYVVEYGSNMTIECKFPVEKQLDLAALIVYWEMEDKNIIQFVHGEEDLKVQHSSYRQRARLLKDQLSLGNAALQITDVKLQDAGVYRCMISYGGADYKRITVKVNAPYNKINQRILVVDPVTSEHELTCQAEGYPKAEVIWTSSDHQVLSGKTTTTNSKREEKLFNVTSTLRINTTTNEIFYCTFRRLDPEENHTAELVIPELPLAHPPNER
From the text: Binding activity of anti-EPN1/anti-PD-L1 DVD-IgG bispecific antibodies. […] Purified recombinant proteins were spotted at three dose levels as depicted in FIG. 10, and probed with the four anti-EPN1/anti-PD-L1 bispecific antibodies. […] An antibody specific for a coat protein on the dengue virus served as a negative control.

T1 sequence (P02769 25-607 limits assumed): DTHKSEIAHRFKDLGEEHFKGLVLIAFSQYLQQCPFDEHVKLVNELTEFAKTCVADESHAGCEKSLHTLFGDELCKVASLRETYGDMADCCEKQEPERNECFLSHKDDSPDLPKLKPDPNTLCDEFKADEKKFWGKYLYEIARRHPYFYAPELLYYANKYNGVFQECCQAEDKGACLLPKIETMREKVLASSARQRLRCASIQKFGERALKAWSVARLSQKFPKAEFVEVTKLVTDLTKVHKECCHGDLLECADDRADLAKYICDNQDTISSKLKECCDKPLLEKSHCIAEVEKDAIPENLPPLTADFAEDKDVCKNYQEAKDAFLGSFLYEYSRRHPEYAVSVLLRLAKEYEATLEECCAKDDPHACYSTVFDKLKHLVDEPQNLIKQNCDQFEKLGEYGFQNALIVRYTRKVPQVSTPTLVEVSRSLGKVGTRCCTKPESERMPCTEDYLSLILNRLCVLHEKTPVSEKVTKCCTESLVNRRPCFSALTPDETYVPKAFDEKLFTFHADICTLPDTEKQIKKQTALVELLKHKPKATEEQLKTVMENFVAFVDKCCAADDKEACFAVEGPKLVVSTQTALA

B1: IMM20059 (antibody, V domains shown)
VH: EVQLVESGGGLVQPGGSLRLSCAASGFTFSIHSLNWVRQAPGKGLEWVSYISSNSTTIYYADSVKGRFTISRDNAKDSLYLQMNSLRDEDTAVYYCARDYYCTGGTCFFLPDLWGRGALVTVSS
VL: EIVLTQSPATLSLSPGERATLSCRASQNISNFLAWYQHKPGQAPRLLIYDASIRATGIPARFSGSGSGTDFSLTISSLEPEDFAVYFCQQRYNWLTFGGGTKVEIKR
notes: Recombinantly expressed human IgG1 with the PR045-2H11 VH and VL domains
- binding result [1]: no binding
- binding result [2]: no binding (tested: 40 ng)
